{"source": "patent CN105330739A", "about": "(WATERSTONE PHARMACEUTICALS WUHAN CO LTD, dated 2016)", "target": "T1, 鼠VEGF (mouse, UniProt Q00731-2 27-190, limits assumed)", "T1 construct": "Coated on the ELISA plate at 0.5 ug/ml; also called mouse VEGF", "T1 sequence (looked up)": "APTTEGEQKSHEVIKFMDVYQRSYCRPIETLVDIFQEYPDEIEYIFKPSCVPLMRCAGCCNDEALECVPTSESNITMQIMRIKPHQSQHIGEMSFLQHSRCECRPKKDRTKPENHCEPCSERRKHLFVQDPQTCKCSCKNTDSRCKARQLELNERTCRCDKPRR", "experiment": "ELISA, mouse VEGF coated at 0.5 ug/ml"}
{"binder": "NevegiMab抗体 (antibody, V domains shown, Mouse monoclonal antibody purified from hybridoma supernatant; also called 单抗NevegiMab; 单克隆抗体NevegiMab) VH: EVKLQESGPELKKPGETVKISCKASGYTFTNYGLNWVKQAPGKGLKWMGWINTYTGEPTYADDFKGRFAFSLETSASTAYLQINNLKNEDMATYFCAKYGITYEWYFDVWGAGTTVTVSS VL: DIVLTQSTSSLSASLGDRVTISCRASQDISNSLNWYQQKPNGTVILLIYYTSRLHSGVPSRFSGSGSGAVYSLTISDLEQEDIATYFCQQGNTFPWTFGGGTKLEIKR", "values": [{"measurement": "binding result", "result": "no binding"}]}
